Experimental data from publication doi:10.1101/511394.
Where two headings read alike, the source gives them in different places.

T1: ZHX1 (UniProt Q9UKY1 55-830)
T1 sequence: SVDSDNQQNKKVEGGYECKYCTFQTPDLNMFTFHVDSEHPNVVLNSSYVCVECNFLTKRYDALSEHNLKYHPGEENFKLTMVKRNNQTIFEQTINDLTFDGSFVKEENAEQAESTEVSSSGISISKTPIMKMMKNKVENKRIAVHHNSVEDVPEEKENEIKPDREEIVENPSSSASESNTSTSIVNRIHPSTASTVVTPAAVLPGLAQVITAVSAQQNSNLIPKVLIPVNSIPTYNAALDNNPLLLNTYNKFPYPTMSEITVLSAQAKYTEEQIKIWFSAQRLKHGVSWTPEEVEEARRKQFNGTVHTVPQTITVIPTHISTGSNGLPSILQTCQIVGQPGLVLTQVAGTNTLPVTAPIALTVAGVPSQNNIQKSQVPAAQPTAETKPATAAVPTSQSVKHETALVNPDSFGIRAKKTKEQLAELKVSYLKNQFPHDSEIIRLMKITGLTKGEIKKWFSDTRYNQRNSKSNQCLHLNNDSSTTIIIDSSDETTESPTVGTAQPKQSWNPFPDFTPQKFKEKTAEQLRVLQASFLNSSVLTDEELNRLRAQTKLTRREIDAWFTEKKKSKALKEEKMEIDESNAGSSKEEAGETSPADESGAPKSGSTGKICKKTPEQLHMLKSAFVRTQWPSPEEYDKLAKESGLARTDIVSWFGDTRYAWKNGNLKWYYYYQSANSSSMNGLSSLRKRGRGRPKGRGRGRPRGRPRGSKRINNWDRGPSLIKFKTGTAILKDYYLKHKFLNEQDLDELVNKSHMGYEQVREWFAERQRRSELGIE

T2: WDR76 (FLAG-HA, HEK293 purified) (Homo sapiens, UniProt Q9H967 1-626)
T2 sequence: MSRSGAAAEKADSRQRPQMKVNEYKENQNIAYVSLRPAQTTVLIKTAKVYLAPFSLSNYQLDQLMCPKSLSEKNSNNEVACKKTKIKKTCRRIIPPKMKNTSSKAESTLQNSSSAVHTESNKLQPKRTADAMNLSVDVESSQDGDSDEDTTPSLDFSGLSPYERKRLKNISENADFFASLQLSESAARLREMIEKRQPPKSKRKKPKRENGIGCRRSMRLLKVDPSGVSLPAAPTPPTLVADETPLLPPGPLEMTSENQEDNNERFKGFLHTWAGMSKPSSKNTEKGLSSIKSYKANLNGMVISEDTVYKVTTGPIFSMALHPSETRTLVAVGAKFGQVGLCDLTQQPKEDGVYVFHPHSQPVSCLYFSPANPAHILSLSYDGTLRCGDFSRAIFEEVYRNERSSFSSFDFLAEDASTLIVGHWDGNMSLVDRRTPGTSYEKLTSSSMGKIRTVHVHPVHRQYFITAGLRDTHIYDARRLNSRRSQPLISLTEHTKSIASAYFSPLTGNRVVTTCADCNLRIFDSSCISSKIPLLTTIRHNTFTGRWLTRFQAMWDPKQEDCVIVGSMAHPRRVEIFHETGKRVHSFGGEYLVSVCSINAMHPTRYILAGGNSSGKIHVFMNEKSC

T3: WDR76 (FLAG-HA, insect cell) (Homo sapiens, UniProt Q9H967 1-626)
T3 sequence: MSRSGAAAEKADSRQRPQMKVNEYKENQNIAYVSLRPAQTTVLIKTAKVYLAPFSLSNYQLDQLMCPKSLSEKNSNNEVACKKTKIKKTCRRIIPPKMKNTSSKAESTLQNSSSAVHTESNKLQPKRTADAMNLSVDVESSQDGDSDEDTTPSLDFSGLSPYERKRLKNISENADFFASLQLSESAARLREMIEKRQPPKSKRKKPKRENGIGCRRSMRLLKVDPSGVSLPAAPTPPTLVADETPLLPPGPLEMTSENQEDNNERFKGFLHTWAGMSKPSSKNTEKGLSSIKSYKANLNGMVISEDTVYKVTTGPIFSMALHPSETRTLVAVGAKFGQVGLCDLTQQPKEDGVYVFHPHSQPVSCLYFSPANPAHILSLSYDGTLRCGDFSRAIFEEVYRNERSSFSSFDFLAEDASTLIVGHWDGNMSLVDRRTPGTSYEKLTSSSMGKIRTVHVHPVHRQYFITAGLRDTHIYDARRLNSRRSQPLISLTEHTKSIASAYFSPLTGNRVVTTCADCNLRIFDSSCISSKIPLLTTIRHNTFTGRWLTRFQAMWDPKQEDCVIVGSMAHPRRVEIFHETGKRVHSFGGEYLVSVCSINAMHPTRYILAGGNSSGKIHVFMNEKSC

T4: WDR76 NTD (Homo sapiens, UniProt Q9H967 1-151)
T4 sequence: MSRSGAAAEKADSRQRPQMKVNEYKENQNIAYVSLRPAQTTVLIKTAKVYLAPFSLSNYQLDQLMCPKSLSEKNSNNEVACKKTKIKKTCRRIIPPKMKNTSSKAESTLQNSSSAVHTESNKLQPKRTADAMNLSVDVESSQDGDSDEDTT

T5: C3ORF37/HMCES full-length (UniProt Q96FZ2 1-354)
T5 sequence: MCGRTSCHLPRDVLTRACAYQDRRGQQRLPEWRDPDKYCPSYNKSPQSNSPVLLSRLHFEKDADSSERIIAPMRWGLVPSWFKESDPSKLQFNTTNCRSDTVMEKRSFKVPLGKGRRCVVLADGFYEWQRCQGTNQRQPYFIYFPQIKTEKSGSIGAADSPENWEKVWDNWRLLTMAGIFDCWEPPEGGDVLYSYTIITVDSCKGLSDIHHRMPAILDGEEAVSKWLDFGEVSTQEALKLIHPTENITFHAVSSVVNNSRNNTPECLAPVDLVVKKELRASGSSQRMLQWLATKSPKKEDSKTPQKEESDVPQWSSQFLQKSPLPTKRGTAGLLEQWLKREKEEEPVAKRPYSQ

B1: mC/mC duplex (dsDNA)
DNA 1: GCGGCTGCGTGGGTCC
DNA 2: GGACCCACGCAGCCGC
modifications: 5-methylcytosine at central CpG C8 of both strands
B2: hmC/hmC duplex (dsDNA)
DNA 1: GCGGCTGCGTGGGTCC
DNA 2: GGACCCACGCAGCCGC
modifications: 5-hydroxymethylcytosine at central CpG C8 of both strands
B3: hmC/C duplex (dsDNA)
DNA 1: GCGGCTGCGTGGGTCC
DNA 2: GGACCCACGCAGCCGC
modifications: 5-hydroxymethylcytosine at central CpG of one strand (strand not stated), C on the other
B4: fC/fC duplex (dsDNA)
DNA 1: GCGGCTGCGTGGGTCC
DNA 2: GGACCCACGCAGCCGC
modifications: 5-formylcytosine at central CpG C8 of both strands
B5: C/C duplex (dsDNA)
DNA 1: GCGGCTGCGTGGGTCC
DNA 2: GGACCCACGCAGCCGC

Key:
ZHX1 = molecular target: T1, ZHX1; assay: EMSA
[1] = molecular target: T2, WDR76 (FLAG-HA, HEK293 purified); assay: EMSA
[2] = molecular target: T3, WDR76 (FLAG-HA, insect cell); assay: EMSA
WDR76 NTD = molecular target: T4, WDR76 NTD; assay: filter binding
[3] = molecular target: T3, WDR76 (FLAG-HA, insect cell); assay: EMSA; remark: listed apart in the source
[4] = molecular target: T5, C3ORF37/HMCES full-length; assay: filter binding

| Binder | binding result (ZHX1) | binding result [1] | also measured |
| --- | --- | --- | --- |
| B1 | no binding |  |  |
| B2 | no binding | binds | binding result [2]: binds |
| B3 |  |  | binding result (WDR76 NTD): binds |
| B4 | no binding | no binding | binding result [3]: no binding |
| B5 | no binding |  | binding result [4]: no binding |
